Source: patent publication US11884740

Columns and labels:
[1] = biological target: C1q Receptor in the complement system (rabbit serum as the source of complement) (rabbit); test: cell-based or functional assay
[2] = biological target: FcγIIIA Receptor on the effector cells (human) (UniProt P08637); test: cell-based or functional assay
Sequence of FcγIIIA Receptor on the effector cells (human) (P08637 17-254): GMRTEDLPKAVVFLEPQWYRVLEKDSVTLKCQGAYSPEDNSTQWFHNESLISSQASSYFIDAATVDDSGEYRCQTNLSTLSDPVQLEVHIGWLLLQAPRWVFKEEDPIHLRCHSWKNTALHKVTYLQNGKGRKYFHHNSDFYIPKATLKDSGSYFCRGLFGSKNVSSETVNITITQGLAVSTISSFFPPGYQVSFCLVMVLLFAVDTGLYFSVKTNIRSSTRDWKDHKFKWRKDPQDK

Substance	EC50 (CDC, Jeko-1 cells, rabbit complement) [1] [µg/mL]	EC50 (ADCC, Raji targets, KILR CD16a effector cells) [2] [ng/mL]	EC50 of ADCC assay Using Primary NK Cells (Raji targets, LDH release) [2] [µg/mL]
ARZERRA (ofatumumab) (antibody)	0.353	0.0741	500
GAZYVA (obinutuzumab) (antibody)		0.00658	19
OCREVUS (ocrelizumab) (antibody)	1.21	0.0608	
RITUXAN (rituximab) (antibody)	0.245	5.46	1390
